± gives the standard deviation of the averaged measurements.
Experiments:
Saccharomyces cerevisiae [1] = assay: protein stability index of tFT-peptide fusion (C-terminal peptide) (PSI (0-1 scale)); higher = more stable (slower turnover)
Method: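 MPS profiling in S. cerevisiae of the tFT-X12 degron library: putative degron peptides plus stable controls, 12 aa, fused to the C-terminus of a sfGFP-mCherry timer. Cells are FACS-sorted into 8 mCherry/sfGFP bins and deep-sequenced. PSI runs from 0 (unstable) to 1 (stable). Backgrounds are wild type, das1Δ and doa10Δ at 30 °C, and wild type, das1Δ, cdc34-1 and cdc53-1 at 37 °C; 2-3 technical replicates each.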

Saccharomyces cerevisiae [2] = assay: as above; conditions: genetic background: wild type; temperature: 30 C
[3] = genetic background: cdc34-1, temperature: 37 C
[4] = genetic background: cdc53-1, temperature: 37 C
[5] = genetic background: das1 deletion, temperature: 30 C
[6] = genetic background: das1 deletion, temperature: 37 C
[7] = genetic background: doa10 deletion, temperature: 30 C
[8] = genetic background: wild type, temperature: 30 C
[9] = genetic background: wild type, temperature: 37 C
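Note: PSI is a weighted mean of sequencing reads over stability bins, variants kept only with over 10 reads, mCherry proximal and sfGFP distal, peptide attached via GGGS linker.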

Row | Sequence | protein stability index (Saccharomyces cerevisiae [1]; [3]) | protein stability index (Saccharomyces cerevisiae [1]; [4]) | protein stability index (Saccharomyces cerevisiae [1]; [5]) | protein stability index (Saccharomyces cerevisiae [1]; [6]) | protein stability index (Saccharomyces cerevisiae [1]; [7]) | protein stability index (Saccharomyces cerevisiae [1]; [8]) | protein stability index (Saccharomyces cerevisiae [1]; [9]) | protein stability index (Saccharomyces cerevisiae [2])
1 | SVGVVWVLSVEG | 0.444 ± 0.042 | 0.517 ± 0.015 | 0.33 ± 0.031 | 0.5415 ± 0.0018 | 0.308 ± 0.0081 | 0.343 ± 0.018 | 0.503 ± 0.0036 | 0.454 ± 0.0074
2 | SVTFVVYFISGG | 0.522 ± 0.025 | 0.608 ± 0.023 | 0.409 ± 0.022 | 0.578 ± 0.028 | 0.426 ± 0.048 | 0.421 ± 0.022 | 0.548 ± 0.0076 | 0.513 ± 0.039
3 | SWAILFVLEGFK | 0.4673 ± 0.0029 | 0.548 ± 0.058 | 0.37 ± 0.021 | 0.561 ± 0.0092 | 0.318 ± 0.019 | 0.366 ± 0.011 | 0.5837 ± 0.004 | 0.477 ± 0.067
4 | SWLLLVFPLSVC | 0.0423 ± 0.012 | 0.0634 ± 0.005 | 0.167 ± 0.03 | 0.231 ± 0.0058 | 0.0982 ± 0.0044 | 0.0994 ± 0.021 | 0.113 ± 0.0063 | 0.191 ± 0.016
5 | TCFVKLLPFLVL | 0.549 ± 0.052 | 0.562 ± 0.011 | 0.456 ± 0.02 | 0.608 ± 0.024 | 0.4425 ± 0.0032 | 0.442 ± 0.013 | 0.5482 ± 0.0021 | 0.546 ± 0.067
6 | TCRASLRRIVVA | 0.514 ± 0.024 | 0.538 ± 0.03 | 0.381 ± 0.031 | 0.5813 ± 0.0056 | 0.222 ± 0.01 | 0.255 ± 0.042 | 0.459 ± 0.015 | 0.358 ± 0.034
7 | TFRVLREIILTA | 0.2 ± 0.021 | 0.228 ± 0.021 | 0.206 ± 0.029 | 0.33 ± 0.023 | 0.151 ± 0.011 | 0.178 ± 0.024 | 0.277 ± 0.0079 | 0.249 ± 0.0078
8 | TPPFFDIFVVLL | 0.576 ± 0.052 | 0.652 ± 0.023 | 0.463 ± 0.027 | 0.6652 ± 0.0032 | 0.456 ± 0.021 | 0.48 ± 0.031 | 0.616 ± 0.043 | 0.46 ± 0.037
9 | TPPIRCRLVRFL | 0.656 ± 0.059 | 0.735 ± 0.017 | 0.626 ± 0.029 | 0.7526 ± 0.00097 | 0.2071 ± 0.0014 | 0.219 ± 0.018 | 0.496 ± 0.0056 | 0.335 ± 0.029
10 | TSARPFLYSFRP | 0.69 ± 0.036 | 0.7386 ± 0.0065 | 0.654 ± 0.018 | 0.739 ± 0.0082 | 0.65 ± 0.016 | 0.642 ± 0.019 | 0.705 ± 0.027 | 0.00961 ± 0.014
11 | TVLPCVLLFLRG | 0.61 ± 0.026 | 0.632 ± 0.012 | 0.508 ± 0.035 | 0.613 ± 0.0086 | 0.506 ± 0.022 | 0.484 ± 0.037 | 0.603 ± 0.03 | 0.485 ± 0.013
12 | VAVFFGCCVKVG | 0.149 ± 0.027 | 0.18 ± 0.02 | 0.191 ± 0.035 | 0.3258 ± 0.0018 | 0.0877 ± 0.0089 | 0.109 ± 0.024 | 0.141 ± 0.019 | 0.156 ± 0.026
13 | VAVGFVLGLCVV | 0.392 ± 0.042 | 0.418 ± 0.013 | 0.348 ± 0.03 | 0.4701 ± 0.0042 | 0.31 ± 0.012 | 0.35 ± 0.021 | 0.431 ± 0.012 | 0.447 ± 0.011
14 | VCFLLLLPALLI | 0.466 ± 0.031 | 0.465 ± 0.014 | 0.398 ± 0.026 | 0.516 ± 0.0089 | 0.422 ± 0.0094 | 0.393 ± 0.016 | 0.512 ± 0.027 | 0.432 ± 0.053
15 | VCNQVPGVIWFC | 0.683 ± 0.036 | 0.771 ± 0.017 | 0.654 ± 0.018 | 0.7556 ± 0.0068 | 0.373 ± 0.0045 | 0.412 ± 0.018 | 0.61183 ± 8.6e-05 | 0.481 ± 0.022
16 | VCRFLVSVFSCV | 0.546 ± 0.042 | 0.548 ± 0.02 | 0.453 ± 0.02 | 0.5763 ± 0.00065 | 0.38 ± 0.024 | 0.399 ± 0.025 | 0.5167 ± 0.0027 | 0.439 ± 0.019
17 | VCRVAAWLGWFV | 0.522 ± 0.016 | 0.708 ± 0.024 | 0.637 ± 0.019 | 0.7292 ± 0.00075 | 0.0897 ± 0.012 | 0.0909 ± 0.024 | 0.1636 ± 0.0013 | 0.175 ± 0.025

Row | Sequence | protein stability index (Saccharomyces cerevisiae [1]; [3]) | protein stability index (Saccharomyces cerevisiae [1]; [4]) | protein stability index (Saccharomyces cerevisiae [1]; [5]) | protein stability index (Saccharomyces cerevisiae [1]; [6]) | protein stability index (Saccharomyces cerevisiae [1]; [7]) | protein stability index (Saccharomyces cerevisiae [1]; [8]) | protein stability index (Saccharomyces cerevisiae [1]; [9]) | protein stability index (Saccharomyces cerevisiae [2])
18 | VEFSLYVVFFLV | 0.2152 ± 0.00048 | 0.344 ± 0.024 | 0.248 ± 0.029 | 0.437 ± 0.028 | 0.0993 ± 0.013 | 0.109 ± 0.018 | 0.154 ± 0.0063 | 0.211 ± 0.0088
19 | VFCPRACWEFVG | 0.567 ± 0.041 | 0.737 ± 0.027 | 0.649 ± 0.021 | 0.7777 ± 0.0067 | 0.12 ± 0.0079 | 0.143 ± 0.0095 | 0.213 ± 0.0029 | 0.222 ± 0.034
20 | VFCSRSLISVVS | 0.193 ± 0.03 | 0.243 ± 0.072 | 0.208 ± 0.041 | 0.355 ± 0.007 | 0.165 ± 0.014 | 0.192 ± 0.03 | 0.303 ± 0.011 | 0.313 ± 0.027
21 | VFFCLCLCLFFV | 0.432 ± 0.023 | 0.463 ± 0.012 | 0.341 ± 0.018 | 0.473 ± 0.028 | 0.299 ± 0.0062 | 0.314 ± 0.022 | 0.45 ± 0.036 | 0.368 ± 0.031
22 | VFFGCIWSIVYN | 0.247 ± 0.022 | 0.302 ± 0.12 | 0.213 ± 0.035 | 0.41 ± 0.018 | 0.181 ± 0.014 | 0.229 ± 0.042 | 0.377 ± 0.011 | 0.2962 ± 0.0012
23 | VFGARLFLIRLV | 0.405 ± 0.059 | 0.519 ± 0.069 | 0.534 ± 0.033 | 0.635 ± 0.023 | 0.155 ± 0.027 | 0.14 ± 0.041 | 0.1767 ± 0.00049 | 0.223 ± 0.0077
24 | VFLNVLDNNRLC | 0.65 ± 0.078 | 0.734 ± 0.011 | 0.662 ± 0.025 | 0.74 ± 0.0031 | 0.323 ± 0.011 | 0.331 ± 0.046 | 0.622 ± 0.028 | 0.464 ± 0.037
25 | VFLRFVLSFFLL | 0.542 ± 0.03 | 0.629 ± 0.023 | 0.526 ± 0.023 | 0.608 ± 0.0045 | 0.424 ± 0.02 | 0.418 ± 0.013 | 0.489 ± 0.0065 | 0.4516 ± 0.001
26 | VFLSLVFFFIIT | 0.254 ± 0.011 | 0.343 ± 0.0077 | 0.282 ± 0.035 | 0.43 ± 0.005 | 0.287 ± 0.013 | 0.275 ± 0.019 | 0.392 ± 0.021 | 0.367 ± 0.026
27 | VFRVLLSLFSTL | 0.657 ± 0.021 | 0.7335 ± 0.0063 | 0.653 ± 0.018 | 0.738 ± 0.0053 | 0.289 ± 0.019 | 0.306 ± 0.023 | 0.4804 ± 0.0029 | 0.408 ± 0.0095
28 | VFRYWCGIFCLT | 0.688 ± 0.052 | 0.701 ± 0.054 | 0.613 ± 0.025 | 0.789 ± 0.045 | 0.528 ± 0.027 | 0.547 ± 0.019 | 0.6715 ± 0.0057 | 0.478 ± 0.07
29 | VFSAGFSTISLF | 0.745 ± 0.037 | 0.792 ± 0.03 | 0.678 ± 0.049 | 0.789 ± 0.012 | 0.6674 ± 0.0061 | 0.666 ± 0.012 | 0.741 ± 0.011 | 0.704 ± 0.39
30 | VFSWLAFGFFCS | 0.647 ± 0.0029 | 0.69 ± 0.012 | 0.61 ± 0.022 | 0.6821 ± 0.0028 | 0.588 ± 0.024 | 0.601 ± 0.023 | 0.642 ± 0.033 | 0.557 ± 0.091
31 | VGELYRLRKLHV | 0.69 ± 0.026 | 0.73 ± 0.013 | 0.607 ± 0.02 | 0.728 ± 0.015 | 0.222 ± 0.02 | 0.249 ± 0.035 | 0.506 ± 0.018 | 0.313 ± 0.035
32 | VGHVFLGVVWLV | 0.44 ± 0.043 | 0.573 ± 0.014 | 0.457 ± 0.031 | 0.6 ± 0.0034 | 0.0977 ± 0.0055 | 0.101 ± 0.013 | 0.0863 ± 0.011 | 0.163 ± 0.013
33 | VGLRLSVIFVVI | 0.265 ± 0.019 | 0.2985 ± 0.0021 | 0.213 ± 0.033 | 0.428 ± 0.027 | 0.195 ± 0.0031 | 0.213 ± 0.027 | 0.391 ± 0.049 | 0.372 ± 0.038
